The text below walks through data of article PMC3377666 (2012).

In the assay the target is PCNA (Homo sapiens, UniProt P12004). Description: enzyme activity assay.
Chain of PCNA (P12004 whole entry): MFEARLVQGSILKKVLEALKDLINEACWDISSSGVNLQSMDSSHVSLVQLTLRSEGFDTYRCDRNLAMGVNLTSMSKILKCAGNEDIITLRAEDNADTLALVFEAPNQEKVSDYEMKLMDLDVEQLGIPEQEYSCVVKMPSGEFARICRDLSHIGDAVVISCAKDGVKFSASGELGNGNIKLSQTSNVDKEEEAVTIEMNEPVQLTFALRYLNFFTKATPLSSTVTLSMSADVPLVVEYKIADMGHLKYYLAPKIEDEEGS

B1: DNA polymerase delta core (protein)
chain 1: MDGKRRPGPGPGVPPKRARGGLWDDDDAPRPSQFEEDLALMEEMEAEHRLQEQEEEELQSVLEGVADGQVPPSAIDPRWLRPTPPALDPQTEPLIFQQLEIDHYVGPAQPVPGGPPPSRGSVPVLRAFGVTDEGFSVCCHIHGFAPYFYTPAPPGFGPEHMGDLQRELNLAISRDSRGGRELTGPAVLAVELCSRESMFGYHGHGPSPFLRITVALPRLVAPARRLLEQGIRVAGLGTPSFAPYEANVDFEIRFMVDTDIVGCNWLELPAGKYALRLKEKATQCQLEADVLWSDVVSHPPEGPWQRIAPLRVLSFDIECAGRKGIFPEPERDPVIQICSLGLRWGEPEPFLRLALTLRPCAPILGAKVQSYEKEEDLLQAWSTFIRIMDPDVITGYNIQNFDLPYLISRAQTLKVQTFPFLGRVAGLCSNIRDSSFQSKQTGRRDTKVVSMVGRVQMDMLQVLLREYKLRSYTLNAVSFHFLGEQKEDVQHSIITDLQNGNDQTRRRLAVYCLKDAYLPLRLLERLMVLVNAVEMARVTGVPLSYLLSRGQQVKVVSQLLRQAMHEGLLMPVVKSEGGEDYTGATVIEPLKGYYDVPIATLDFSSLYPSIMMAHNLCYTTLLRPGTAQKLGLTEDQFIRTPTGDEFVKTSVRKGLLPQILENLLSARKRAKAELAKETDPLRRQVLDGRQLALKVSANSVYGFTGAQVGKLPCLEISQSVTGFGRQMIEKTKQLVESKYTVENGYSTSAKVVYGDTDSVMCRFGVSSVAEAMALGREAADWVSGHFPSPIRLEFEKVYFPYLLISKKRYAGLLFSSRPDAHDRMDCKGLEAVRRDNCPLVANLVTASLRRLLIDRDPEGAVAHAQDVISDLLCNRIDISQLVITKELTRAASDYAGKQAHVELAERMRKRDPGSAPSLGDRVPYVIISAAKGVAAYMKSEDPLFVLEHSLPIDTQYYLEQQLAKPLLRIFEPILGEGRAEAVLLRGDHTRCKTVLTGKVGGLLAFAKRRNCCIGCRTVLSHQGAVCEFCQPRESELYQKEVSHLNALEERFSRLWTQCQRCQGSLHEDVICTSRDCPIFYMRKKVRKDLEDQEQLLRRFGPPGPEAW
chain 2: not shown
B1 gave a Kd of 73 nM.

B2: DNA polymerase delta core+p12 (protein)
chain 1: B1 chain 1
chain 2: not shown
chain 3: MGRKRLITDSYPVVKRREGPAGHSKGELAPELGEEPQPRDEEEAELELLRQFDLAWQYGPCTGITRLQRWCRAKQMGLEPPPEVWQVLKTHPGDPRFQCSLWHLYPL
Molecule B2 gave a Kd of 8.7 nM.
